Assay results reported in PMC2244710, “The Gammaherpesvirus m2 Protein Manipulates the Fyn/Vav Pathway through a Multidocking Mechanism of Assembly” (PLoS ONE, 2008).
Square brackets hold non-standard residues; d marks the D form. Ends that are not written are not given here. * marks the point of attachment. Biotin = O=C1N[C@H]2[C@H](CS[C@H]2CCCCC(=O)*)N1; pY = N[C@@H](Cc1ccc(OP(=O)(O)O)cc1)C(=O)O

Target: T1, GST fusion of the SH2 domain of mouse Fyn (residues 145-247) (mouse, UniProt P39688 145-247)
T1 construct: SH2 domain of mouse Fyn, residues 145-247; Cloned into pGEX-6P-1; also called GST-SH2 (Fyn); SH2 domain of Fyn; source: Escherichia coli, IPTG induction, purified with glutathione-sepharose beads
Assay: pull-down; 10 µg of biotinylated pY120 peptide incubated with increasing amounts of purified GST proteins overnight at 4°C; recovered with streptavidin-conjugated beads; anti-GST immunoblot
Settings: both partners purified

T1 sequence (P39688 145-247): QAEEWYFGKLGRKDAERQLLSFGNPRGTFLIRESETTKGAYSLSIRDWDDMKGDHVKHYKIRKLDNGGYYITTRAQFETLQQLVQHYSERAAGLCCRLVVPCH

B1: N-terminal biotinylated, tyrosine phosphorylated M2 peptide incorporating Y120 (SPEENIpYETANSE) (peptide)
peptide: Biotin-SPEENI[pY]ETANSE
notes: region of M2 of MHV-68 incorporating Y120; numbers count on: the final spliced form of the protein; also called pY120 peptide; phosphorylated Y120 peptide; source: synthetic peptide, bought: Sigma
  binding result: binds
